{"source": "paper PMC13278974", "about": "“Nucleophagy removes cytotoxic trapped PARP1” (Nature Cell Biology, 2026)", "molecular_target": "T1, His–PARP1, full length, recombinant (called GFP-PARP1 / PARP1–GFP in the results and legend) (UniProt P09874 1-1014)", "T1 construct": "PARP1, full length, cloned into NcoI and BamHI sites of pNIC28; The methods describe only His–PARP1 from pNIC28 with no GFP; Whether GFP was on the protein is open; It was held on PARP1-trap beads; also called pNIC28–PARP1; source: E. coli Rosetta (DE3), purified (HisTrap, SEC Superdex 200)", "T1 sequence (P09874 whole entry)": "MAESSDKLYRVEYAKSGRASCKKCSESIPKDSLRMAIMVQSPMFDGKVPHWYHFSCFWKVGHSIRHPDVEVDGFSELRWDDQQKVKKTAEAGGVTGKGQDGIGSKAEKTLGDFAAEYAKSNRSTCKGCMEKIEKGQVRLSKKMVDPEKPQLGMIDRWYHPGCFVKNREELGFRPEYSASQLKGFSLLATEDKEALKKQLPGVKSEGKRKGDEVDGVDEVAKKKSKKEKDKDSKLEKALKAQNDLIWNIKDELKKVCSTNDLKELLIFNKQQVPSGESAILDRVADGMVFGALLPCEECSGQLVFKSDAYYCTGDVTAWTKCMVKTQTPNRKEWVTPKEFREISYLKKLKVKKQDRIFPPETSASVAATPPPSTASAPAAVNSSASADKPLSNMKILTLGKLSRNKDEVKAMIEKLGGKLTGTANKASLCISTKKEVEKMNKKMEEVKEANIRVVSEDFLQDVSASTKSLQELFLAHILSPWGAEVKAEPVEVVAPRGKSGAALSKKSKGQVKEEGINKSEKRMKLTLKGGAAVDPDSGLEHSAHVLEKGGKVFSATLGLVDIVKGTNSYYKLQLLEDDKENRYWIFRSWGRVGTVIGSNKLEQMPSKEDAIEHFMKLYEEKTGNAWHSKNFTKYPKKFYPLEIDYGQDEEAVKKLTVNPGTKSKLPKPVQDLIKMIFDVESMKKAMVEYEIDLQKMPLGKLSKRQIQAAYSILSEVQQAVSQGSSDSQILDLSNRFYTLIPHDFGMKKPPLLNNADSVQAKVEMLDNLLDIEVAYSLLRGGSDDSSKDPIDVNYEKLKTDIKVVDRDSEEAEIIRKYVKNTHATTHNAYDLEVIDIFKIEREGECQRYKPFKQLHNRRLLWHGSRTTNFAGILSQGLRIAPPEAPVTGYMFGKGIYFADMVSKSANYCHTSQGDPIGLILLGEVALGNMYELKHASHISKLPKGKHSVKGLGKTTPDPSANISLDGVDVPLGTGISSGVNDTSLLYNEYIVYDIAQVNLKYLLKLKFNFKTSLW", "test": "pull-down; PARP1 (2.5 µM) held on PARP1-trap beads, TEX264 (2.5 µM) added in 50 mM HEPES pH 7.4, 500 mM NaCl, 0.01% Triton X-100, 1 mM TCEP, 2 h at 4 °C; washes with 0.1% Triton X-100; western blot", "conditions": "both partners purified"}
{"binder": "His–TEX264 (34-313) (domain or fragment, UniProt Q9Y6I9 34-313, looked up, the printed UniProt entry Q9Y6I9 is the human protein; The longest recombinant TEX264 described in the methods; also called TEX264^WT (variant 1); source: E. coli Rosetta (DE3), pCold cold shock system, purified (HiTrap Q FF, SEC Superdex 200)) VEVSAGSPPIRNVTVAYKFHMGLYGETGRLFTESCSISPKLRSIAVYYDNPHMVPPDKCRCAVGSILSEGEESPSPELIDLYQKFGFKVFSFPAPSHVVTATFPYTTILSIWLATRRVHPALDTYIKERKLCAYPRLEIYQEDQIHFMCPLARQGDFYVPEMKETEWKWRGLVEAIDTQVDGTGADTMSDTSSVSLEVSPGSRETSAATLSPGASSRGWDDGDTRSEHSYSESGASGSSFEELDLEGEGPLGESRLDPGTEPLGTTKWLWEPTAPEKGKE", "values": [{"measurement": "binding result", "result": "binds"}]}
{"binder": "His–TEX264–Cter (186-313) (domain or fragment, UniProt Q9Y6I9 186-313, looked up, also called C-terminal half of TEX264; variant 2) RQGDFYVPEMKETEWKWRGLVEAIDTQVDGTGADTMSDTSSVSLEVSPGSRETSAATLSPGASSRGWDDGDTRSEHSYSESGASGSSFEELDLEGEGPLGESRLDPGTEPLGTTKWLWEPTAPEKGKE", "values": [{"measurement": "binding result", "result": "binds"}]}
